Experimental data taken from patent US20220411483A1 (Chugai, published 2022).
Substitutions are numbered along the chain they refer to.

T1: FcγRIIa R type extracellular domain, His tag (human, UniProt P12318 34-217)
T1 construct: extracellular domain; also called FcgRIIaR
T1 sequence (looked up): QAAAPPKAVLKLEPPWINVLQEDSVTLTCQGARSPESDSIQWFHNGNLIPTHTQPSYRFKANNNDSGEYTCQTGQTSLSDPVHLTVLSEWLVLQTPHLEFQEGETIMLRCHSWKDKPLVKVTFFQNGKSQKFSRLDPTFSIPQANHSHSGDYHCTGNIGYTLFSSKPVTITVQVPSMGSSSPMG

T2: FcγRIIb extracellular domain, His tag (human, UniProt P31994 43-217)
T2 construct: extracellular domain; also called FcgRIIb
T2 sequence (looked up): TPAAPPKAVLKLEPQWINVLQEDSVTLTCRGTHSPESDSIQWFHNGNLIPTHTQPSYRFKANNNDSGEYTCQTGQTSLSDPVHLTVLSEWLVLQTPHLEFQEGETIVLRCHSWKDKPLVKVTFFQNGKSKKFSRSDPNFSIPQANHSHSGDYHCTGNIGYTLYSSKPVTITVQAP

T3: FcγRIIa H type extracellular domain, His tag (human, UniProt P12318 34-217)
T3 construct: extracellular domain; also called FcgRIIaH
T3 sequence (looked up): T1 sequence (looked up) with R134H

B1: IL6R-P605/IL6R-L (antibody, human IgG1, kappa)
heavy: QVQLQESGPGLVKPSETLSLTCAVSGHSISHDHAWSWVRQPPGEGLEWIGFISYSGITNYNPSLQGRVTISRDNSKNTLYLQMNSLRAEDTAVYYCARSLARTTAMDYWGEGTLVTVSSASTKGPSVFPLAPSSKSTSGGTAALGCLVKDYFPEPVTVSWNSGALTSGVHTFPAVLQSSGLYSLSSVVTVPSSSLGTQTYICNVNHKPSNTKVDKKVEPKSCDKTHTCPPCPAPELLGGDSVFLFPPKPKDTLMISRTPEVTCVVVDVSHEDPEVKFNWYVDGVEVHNAKTKPREEQDNATYRVVSVLTVLHQDWLNGKEYKCKVSNKALPAPIEKTISKAKGQPREPQVYTLPPSRDELTKNQVSLTCLVKGFYPSDIAVEWESNGQPENNYKTTPPVLDSDGSFFLYSKLTVDKSRWQQGNVFSCSVMHEALHNHYTQKSLSLSP
light: not shown
B2: IL6R-P693/IL6R-L (antibody, human IgG1, kappa)
heavy: B1 heavy with D298E
light: not shown
B3: IL6R-P726/IL6R-L (antibody, human IgG1, kappa)
heavy: B1 heavy with G239Q, F243M, D298E, A300S, S326H, A332H
light: not shown
B4: IL6R-P692/IL6R-L (antibody, human IgG1, kappa)
heavy: B1 heavy with L237F, G239Q, F243M, D298E, A300S, A332H
light: not shown
B5: IL6R-P661/IL6R-L (antibody, human IgG1, kappa)
heavy: B1 heavy with D298Y, A332H
light: not shown
B6: IL6R-P653/IL6R-L (antibody, human IgG1, kappa)
heavy: B1 heavy with F243M, H270P, D298E, A300S
light: not shown
B7: IL6R-P728/IL6R-L (antibody, human IgG1, kappa)
heavy: B1 heavy with L237F, G239Q, F243M, D298E, A300S, S326H
light: not shown
B8: IL6R-P689/IL6R-L (antibody, human IgG1, kappa)
heavy: B1 heavy with F243M, H270P, D298E, A300S, S326H
light: not shown
B9: IL6R-P660/IL6R-L (antibody, human IgG1, kappa)
heavy: B1 heavy with D298Y, S326N
light: not shown
B10: IL6R-P656/IL6R-L (antibody, human IgG1, kappa)
heavy: B1 heavy with F243M, D298E, A300S, A332H
light: not shown

Each binder was assayed against T1, FcγRIIa R type extracellular domain, … (assay: SPR, bound amount per captured antibody).

| Binder | Relative FcgRIIaR-binding Activity |
| --- | --- |
| B1 | 13.5 % of IL6R-G1d/IL6R-L |
| B2 | 11.4 % of IL6R-G1d/IL6R-L |
| B3 | 12 % of IL6R-G1d/IL6R-L |
| B4 | 13.7 % of IL6R-G1d/IL6R-L |
| B5 | 17.5 % of IL6R-G1d/IL6R-L |
| B6 | 14.5 % of IL6R-G1d/IL6R-L |
| B7 | 11 % of IL6R-G1d/IL6R-L |
| B8 | 10.1 % of IL6R-G1d/IL6R-L |
| B9 | 14.7 % of IL6R-G1d/IL6R-L |
| B10 | 18.2 % of IL6R-G1d/IL6R-L |

The binders below were run against T2, FcγRIIb extracellular domain, His tag (assay: SPR, bound amount per captured antibody).

| Binder | Relative FcgRIIb-binding Activity |
| --- | --- |
| B1 | 82 % of IL6R-G1d/IL6R-L |
| B2 | 87.9 % of IL6R-G1d/IL6R-L |
| B3 | 123 % of IL6R-G1d/IL6R-L |
| B4 | 127 % of IL6R-G1d/IL6R-L |
| B5 | 109 % of IL6R-G1d/IL6R-L |
| B6 | 116 % of IL6R-G1d/IL6R-L |
| B7 | 126 % of IL6R-G1d/IL6R-L |
| B8 | 103 % of IL6R-G1d/IL6R-L |
| B9 | 100 % of IL6R-G1d/IL6R-L |
| B10 | 138 % of IL6R-G1d/IL6R-L |

Each binder was assayed against T3, FcγRIIa H type extracellular domain, … (assay: SPR, KD ratio).

| Binder | Relative FcgRIIaH-binding Activity |
| --- | --- |
| B1 | 0.007 fold of IL6R-G1d/IL6R-L |
| B2 | 0.006 fold of IL6R-G1d/IL6R-L |
| B3 | 0.016 fold of IL6R-G1d/IL6R-L |
| B4 | 0.008 fold of IL6R-G1d/IL6R-L |
| B5 | 0.01 fold of IL6R-G1d/IL6R-L |
| B6 | 0.009 fold of IL6R-G1d/IL6R-L |
| B7 | 0.012 fold of IL6R-G1d/IL6R-L |
| B8 | 0.008 fold of IL6R-G1d/IL6R-L |
| B9 | 0.009 fold of IL6R-G1d/IL6R-L |
| B10 | 0.011 fold of IL6R-G1d/IL6R-L |

The binders below were run against T1, FcγRIIa R type extracellular domain, … (assay: SPR, KD ratio).

| Binder | Relative FcgRIIaR-binding Activity |
| --- | --- |
| B1 | 0.021 fold of IL6R-G1d/IL6R-L |
| B2 | 0.018 fold of IL6R-G1d/IL6R-L |
| B3 | 0.019 fold of IL6R-G1d/IL6R-L |
| B4 | 0.022 fold of IL6R-G1d/IL6R-L |
| B5 | 0.03 fold of IL6R-G1d/IL6R-L |
| B6 | 0.024 fold of IL6R-G1d/IL6R-L |
| B7 | 0.017 fold of IL6R-G1d/IL6R-L |
| B8 | 0.016 fold of IL6R-G1d/IL6R-L |
| B9 | 0.025 fold of IL6R-G1d/IL6R-L |
| B10 | 0.032 fold of IL6R-G1d/IL6R-L |

Each binder was assayed against T4, FcγRIIIa V type extracellular domain, His tag (human, UniProt P08637 17-208) (assay: SPR, KD ratio).
T4 construct: extracellular domain; also called FcgRIIIaV
T4 sequence (P08637 17-208 F176V): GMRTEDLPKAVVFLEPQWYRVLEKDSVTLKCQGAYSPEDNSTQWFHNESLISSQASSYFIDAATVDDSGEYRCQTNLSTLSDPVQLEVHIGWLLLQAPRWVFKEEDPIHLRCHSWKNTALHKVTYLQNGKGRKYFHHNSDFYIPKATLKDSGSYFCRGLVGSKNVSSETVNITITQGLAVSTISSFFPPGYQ

| Binder | Relative FcgRIIIaV-binding Activity |
| --- | --- |
| B1 | 0.008 fold of IL6R-G1d/IL6R-L |
| B2 | 0.008 fold of IL6R-G1d/IL6R-L |
| B3 | 0.009 fold of IL6R-G1d/IL6R-L |
| B4 | 0.006 fold of IL6R-G1d/IL6R-L |
| B5 | 0.012 fold of IL6R-G1d/IL6R-L |
| B6 | 0.007 fold of IL6R-G1d/IL6R-L |
| B7 | 0.007 fold of IL6R-G1d/IL6R-L |
| B8 | 0.007 fold of IL6R-G1d/IL6R-L |
| B9 | 0.011 fold of IL6R-G1d/IL6R-L |
| B10 | 0.007 fold of IL6R-G1d/IL6R-L |

The binders below were run against T2, FcγRIIb extracellular domain, His tag (assay: SPR, KD ratio).

| Binder | Relative FcgRIIb-binding Activity |
| --- | --- |
| B1 | 0.977 fold of IL6R-G1d/IL6R-L |
| B2 | 0.918 fold of IL6R-G1d/IL6R-L |
| B3 | 1.25 fold of IL6R-G1d/IL6R-L |
| B4 | 1.89 fold of IL6R-G1d/IL6R-L |
| B5 | 1.28 fold of IL6R-G1d/IL6R-L |
| B6 | 1.46 fold of IL6R-G1d/IL6R-L |
| B7 | 1.31 fold of IL6R-G1d/IL6R-L |
| B8 | 1.09 fold of IL6R-G1d/IL6R-L |
| B9 | 0.972 fold of IL6R-G1d/IL6R-L |
| B10 | 2.68 fold of IL6R-G1d/IL6R-L |

Each binder was assayed against T5, FcγRIa extracellular domain, His tag (human, UniProt P12314 16-292) (assay: SPR, KD ratio).
T5 construct: whole entry named; also called FcgRIa
T5 sequence (P12314 16-292): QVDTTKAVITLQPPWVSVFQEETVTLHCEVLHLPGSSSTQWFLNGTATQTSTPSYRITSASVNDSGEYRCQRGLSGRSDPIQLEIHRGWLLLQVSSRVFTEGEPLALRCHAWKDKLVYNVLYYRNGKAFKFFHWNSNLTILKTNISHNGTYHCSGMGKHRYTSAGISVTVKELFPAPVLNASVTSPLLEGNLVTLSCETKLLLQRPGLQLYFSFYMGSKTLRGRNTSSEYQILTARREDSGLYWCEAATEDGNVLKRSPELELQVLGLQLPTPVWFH

| Binder | Relative FcgRIa-binding Activity |
| --- | --- |
| B1 | 0.0384 fold of IL6R-G1d/IL6R-L |
| B2 | 0.0423 fold of IL6R-G1d/IL6R-L |
| B3 | 0.0017 fold of IL6R-G1d/IL6R-L |
| B4 | 0.0006 fold of IL6R-G1d/IL6R-L |
| B5 | 0.033 fold of IL6R-G1d/IL6R-L |
| B6 | 0.0183 fold of IL6R-G1d/IL6R-L |
| B7 | 0.0006 fold of IL6R-G1d/IL6R-L |
| B8 | 0.0118 fold of IL6R-G1d/IL6R-L |
| B9 | 0.0446 fold of IL6R-G1d/IL6R-L |
| B10 | 0.0118 fold of IL6R-G1d/IL6R-L |
